Experimental data as given in paper doi:10.1101/2025.02.17.638590.

Molecular target: free tubulin (bovine) (UniProt Q6B856)
Test: tubulin recruitment assay

UniProt Q6B856, sequence (Q6B856 whole entry, looked up): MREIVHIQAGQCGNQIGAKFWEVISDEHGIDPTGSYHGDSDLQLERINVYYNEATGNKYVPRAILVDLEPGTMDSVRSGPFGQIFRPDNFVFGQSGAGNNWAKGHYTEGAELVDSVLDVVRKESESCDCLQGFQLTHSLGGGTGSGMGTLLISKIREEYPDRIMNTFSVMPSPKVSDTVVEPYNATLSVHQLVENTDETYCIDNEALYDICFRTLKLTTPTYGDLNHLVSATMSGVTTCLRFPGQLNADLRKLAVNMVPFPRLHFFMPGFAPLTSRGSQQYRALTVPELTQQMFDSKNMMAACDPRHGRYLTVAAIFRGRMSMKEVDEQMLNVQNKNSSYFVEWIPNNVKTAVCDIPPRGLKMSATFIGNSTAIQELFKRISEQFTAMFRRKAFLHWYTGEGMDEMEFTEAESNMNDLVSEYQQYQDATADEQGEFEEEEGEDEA

Substance	percent of stabilised microtubules with recruited free tubulin	percent of pre-polymerised microtubules with recruited free tubulin
MAP6d1-Δ2-35 (from UniProt Q14BB9 1-191) (natural protein)	9%	–
MAP6d1 (from UniProt Q14BB9 1-191) (natural protein)	–	57%
